Patent US8209131

Target: IL-4 receptor alpha (IL-4Ra) (UniProt P24394)
Experiment: cell-based or functional assay

Sequence of IL-4 receptor alpha (IL-4Ra) (P24394 26-825 limits assumed): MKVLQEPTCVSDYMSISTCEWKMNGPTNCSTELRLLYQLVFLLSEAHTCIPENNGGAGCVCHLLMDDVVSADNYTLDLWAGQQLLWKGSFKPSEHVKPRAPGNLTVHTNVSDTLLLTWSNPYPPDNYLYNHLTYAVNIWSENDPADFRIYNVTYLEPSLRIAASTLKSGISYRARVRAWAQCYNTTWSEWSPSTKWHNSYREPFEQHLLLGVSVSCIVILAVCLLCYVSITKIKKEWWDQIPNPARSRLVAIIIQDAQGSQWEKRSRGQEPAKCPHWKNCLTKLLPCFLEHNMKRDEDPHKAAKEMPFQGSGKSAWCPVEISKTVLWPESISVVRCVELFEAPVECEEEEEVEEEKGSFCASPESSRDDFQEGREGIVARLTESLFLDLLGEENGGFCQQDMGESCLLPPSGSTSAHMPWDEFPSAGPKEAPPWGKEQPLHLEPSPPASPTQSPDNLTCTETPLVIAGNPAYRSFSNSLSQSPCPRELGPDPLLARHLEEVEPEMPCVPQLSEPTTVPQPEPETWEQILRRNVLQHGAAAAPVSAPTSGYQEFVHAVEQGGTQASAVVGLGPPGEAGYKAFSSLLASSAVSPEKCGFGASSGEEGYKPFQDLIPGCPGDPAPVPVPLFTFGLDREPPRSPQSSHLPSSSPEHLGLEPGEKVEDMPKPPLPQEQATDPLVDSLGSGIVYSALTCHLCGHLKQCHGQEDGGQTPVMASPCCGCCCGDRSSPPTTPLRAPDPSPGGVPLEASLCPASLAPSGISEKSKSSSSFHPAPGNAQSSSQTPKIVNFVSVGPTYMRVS

Conc needed for 50% growth (TF1.8 Bioassay), average | Substance
76.1 ng/mL | IL-4 mutant E9A (from UniProt P05112 25-153) (ligand)
11.3 ng/mL | IL-4 double mutant K77A/R53A (from UniProt P05112 25-153) (ligand)
4.85 ng/mL | IL-4 mutant R81A (from UniProt P05112 25-153) (ligand)
1.36 ng/mL | IL-4 mutant K21A (from UniProt P05112 25-153) (ligand)
1.65 ng/mL | IL-4 double mutant K77A/R81A (from UniProt P05112 25-153) (ligand)
0.63 ng/mL | IL-4 mutant R75A (from UniProt P05112 25-153) (ligand)
0.6 ng/mL | IL-4 mutant K12A (from UniProt P05112 25-153) (ligand)
415 ng/mL | IL-4 mutant R88V (from UniProt P05112 25-153) (ligand)
9.39 ng/mL | IL-4 mutant R53A (from UniProt P05112 25-153) (ligand)
0.71 ng/mL | IL-4 mutant R85A (from UniProt P05112 25-153) (ligand)
2.95 ng/mL | IL-4 mutant K84A (from UniProt P05112 25-153) (ligand)
1.69 ng/mL | IL-4 double mutant K77A/K84A (from UniProt P05112 25-153) (ligand)
0.67 ng/mL | IL-4 mutant K42A (from UniProt P05112 25-153) (ligand)
1.55 ng/mL | IL-4 mutant K77A (from UniProt P05112 25-153) (ligand)
